Target: T1, Vesicular Stomatitis Virus Glycoprotein (VSV-G) (Vesicular Stomatitis Virus, UniProt P03522 17-511)
T1 construct: whole, on cells
Experiment: flow cytometry, VSV-G-transfected 293T cells (FIG. 4C)

T1 sequence (P03522 17-511): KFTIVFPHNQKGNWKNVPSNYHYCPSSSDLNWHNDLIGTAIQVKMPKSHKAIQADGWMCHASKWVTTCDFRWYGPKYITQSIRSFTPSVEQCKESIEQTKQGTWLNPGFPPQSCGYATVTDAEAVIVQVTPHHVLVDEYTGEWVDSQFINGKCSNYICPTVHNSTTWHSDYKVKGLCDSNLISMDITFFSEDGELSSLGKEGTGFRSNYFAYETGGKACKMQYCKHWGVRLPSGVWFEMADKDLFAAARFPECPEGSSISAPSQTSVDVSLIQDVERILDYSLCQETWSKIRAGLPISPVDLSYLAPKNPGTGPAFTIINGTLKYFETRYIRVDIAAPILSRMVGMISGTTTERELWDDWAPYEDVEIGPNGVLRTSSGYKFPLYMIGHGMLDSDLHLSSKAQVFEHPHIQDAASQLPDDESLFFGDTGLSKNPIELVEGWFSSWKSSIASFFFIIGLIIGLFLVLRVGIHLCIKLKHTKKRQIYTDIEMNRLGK

B1: monoclonal antibody MIB22 (antibody, V domains shown)
VH: EVQLVQSGAELKKPGSSVKVSCKASGGTFVGYGVSWVRQVPGHGPEWMGGFSPISNTANYAERFQGRVTMIVDGSTSTAYMELRSLRSEDTAIYYCARSCDFWNAYYNNWFDPWGQGTLVTVSS
VL: AQSALTQPASVSGSPGQSITISCTGTSSDFADYNSVSWYQQHPGKAPKLLIFDVNDRPSGVSHRFSGSKSGNTASLTISGLQAEDESDYYCTSYTICNSYVFGTGTKVTVLG
notes: also called MIB22 IgG; first antibody
binding result: no binding (tested: 1 to 15 µg/ml)

Source: patent publication US20220298229A1 (ICHOR BIOLOGICS, published 2022)
